# According to article PMC11574045, “A cofactor-induced repressive type of transcription factor condensation can be induced by synthetic peptides to suppress tumorigenesis” (The EMBO Journal, 2024):
# B1: SP100 (protein, UniProt P23497 2-879, looked up)
# Nuclear autoantigen Sp-100: AGGGGDLSTRRLNECISPVANEMNHLPAHSHDLQRMFTEDQGVDDRLLYDIVFKHFKRNKVEISNAIKKTFPFLEGLRDRDLITNKMFEDSQDSCRNLVPVQRVVYNVLSELEKTFNLPVLEALFSDVNMQEYPDLIHIYKGFENVIHDKLPLQESEEEEREERSGLQLSLEQGTGENSFRSLTWPPSGSPSHAGTTPPENGLSEHPCETEQINAKRKDTTSDKDDSLGSQQTNEQCAQKAEPTESCEQIAVQVNNGDAGREMPCPLPCDEESPEAELHNHGIQINSCSVRLVDIKKEKPFSNSKVECQAQARTHHNQASDIIVISSEDSEGSTDVDEPLEVFISAPRSEPVINNDNPLESNDEKEGQEATCSRPQIVPEPMDFRKLSTFRESFKKRVIGQDHDFSESSEEEAPAEASSGALRSKHGEKAPMTSRSTSTWRIPSRKRRFSSSDFSDLSNGEELQETCSSSLRRGSGSQPQEPENKKCSCVMCFPKGVPRSQEARTESSQASDMMDTMDVENNSTLEKHSGKRRKKRRHRSKVNGLQRGRKKDRPRKHLTLNNKVQKKRWQQRGRKANTRPLKRRRKRGPRIPKDENINFKQSELPVTCGEVKGTLYKERFKQGTSKKCIQSEDKKWFTPREFEIEGDRGASKNWKLSIRCGGYTLKVLMENKFLPEPPSTRKKRILESHNNTLVDPCEEHKKKNPDASVKFSEFLKKCSETWKTIFAKEKGKFEDMAKADKAHYEREMKTYIPPKGEKKKKFKDPNAPKRPPLAFFLFCSEYRPKIKGEHPGLSIDDVVKKLAGMWNNTAAADKQFYEKKAAKLKEKYKKDIAAYRAKGKPNSAKKRVVKAEKSKKKKEEEEDEEDEQEEENEEDDDK
# B2: SP110 (protein, UniProt Q9HB58 1-689, looked up)
# Sp110 nuclear body protein: MFTMTRAMEEALFQHFMHQKLGIAYAIHKPFPFFEGLLDNSIITKRMYMESLEACRNLIPVSRVVHNILTQLERTFNLSLLVTLFSQINLREYPNLVTIYRSFKRVGASYEWQSRDTPILLEAPTGLAEGSSLHTPLALPPPQPPQPSCSPCAPRVSEPGTSSQQSDEILSESPSPSDPVLPLPALIQEGRSTSVTNDKLTSKMNAEEDSEEMPSLLTSTVQVASDNLIPQIRDKEDPQEMPHSPLGSMPEIRDNSPEPNDPEEPQEVSSTPSDKKGKKRKRCIWSTPKRRHKKKSLPGGTASSRHGIQKKLKRVDQVPQKKDDSTCNSTVETRAQKARTECARKSRSEEIIDGTSEMNEGKRSQKTPSTPRRVTQGAASPGHGIQEKLQVVDKVTQRKDDSTWNSEVMMRVQKARTKCARKSRLKEKKKEKDICSSSKRRFQKNIHRRGKPKSDTVDFHCSKLPVTCGEAKGILYKKKMKHGSSVKCIRNEDGTWLTPNEFEVEGKGRNAKNWKRNIRCEGMTLGELLKRKNSDECEVCCQGGQLLCCGTCPRVFHEDCHIPPVEAKRMLWSCTFCRMKRSSGSQQCHHVSKTLERQMQPQDQLIRDYGEPFQEAMWLDLVKERLITEMYTVAWFVRDMRLMFRNHKTFYKASDFGQVGLDLEAEFEKDLKDVLGFHEANDGGFWTLP
# B3: BCL6B (protein, UniProt Q8N143 1-479, looked up)
# B-cell CLL/lymphoma 6 member …: MGSPAAPEGALGYVREFTRHSSDVLGNLNELRLRGILTDVTLLVGGQPLRAHKAVLIACSGFFYSIFRGRAGVGVDVLSLPGGPEARGFAPLLDFMYTSRLRLSPATAPAVLAAATYLQMEHVVQACHRFIQASYEPLGISLRPLEAEPPTPPTAPPPGSPRRSEGHPDPPTESRSCSQGPPSPASPDPKACNWKKYKYIVLNSQASQAGSLVGERSSGQPCPQARLPSGDEASSSSSSSSSSSEEGPIPGPQSRLSPTAATVQFKCGAPASTPYLLTSQAQDTSGSPSERARPLPGSEFFSCQNCEAVAGCSSGLDSLVPGDEDKPYKCQLCRSSFRYKGNLASHRTVHTGEKPYHCSICGARFNRPANLKTHSRIHSGEKPYKCETCGSRFVQVAHLRAHVLIHTGEKPYPCPTCGTRFRHLQTLKSHVRIHTGEKPYHCDPCGLHFRHKSQLRLHLRQKHGAATNTKVHYHILGGP
# B4: BHLHA9 (protein, UniProt Q7RTU4 1-235, looked up)
# Class A basic …: MLRGAPGLGLTARKGAEDSAEDLGGPCPEPGGDSGVLGANGASCSRGEAEEPAGRRRARPVRSKARRMAANVRERKRILDYNEAFNALRRALRHDLGGKRLSKIATLRRAIHRIAALSLVLRASPAPRGPCGHLECHGPAARGDTGDTGASPPPPAGPSLARPDAARPSVPSAPRCASCPPHAPLARPSAVAEGPGLAQASGGSWRRCPGASSAGPPPWPRGYLRSAPGMGHPRS
# B5: SOX7 (protein, UniProt Q9BT81 1-388, looked up)
# Transcription factor SOX-7: MASLLGAYPWPEGLECPALDAELSDGQSPPAVPRPPGDKGSESRIRRPMNAFMVWAKDERKRLAVQNPDLHNAELSKMLGKSWKALTLSQKRPYVDEAERLRLQHMQDYPNYKYRPRRKKQAKRLCKRVDPGFLLSSLSRDQNALPEKRSGSRGALGEKEDRGEYSPGTALPSLRGCYHEGPAGGGGGGTPSSVDTYPYGLPTPPEMSPLDVLEPEQTFFSSPCQEEHGHPRRIPHLPGHPYSPEYAPSPLHCSHPLGSLALGQSPGVSMMSPVPGCPPSPAYYSPATYHPLHSNLQAHLGQLSPPPEHPGFDALDQLSQVELLGDMDRNEFDQYLNTPGHPDSATGAMALSGHVPVSQVTPTGPTETSLISVLADATATYYNSYSVS
# B6: SP6 (protein, UniProt Q3SY56 1-376, looked up)
# Transcription factor Sp6: MLTAVCGSLGSQHTEAPHASPPRLDLQPLQTYQGHTSPEAGDYPSPLQPGELQSLPLGPEVDFSQGYELPGASSRVTCEDLESDSPLAPGPFSKLLQPDMSHHYESWFRPTHPGAEDGSWWDLHPGTSWMDLPHTQGALTSPGHPGALQAGLGGYVGDHQLCAPPPHPHAHHLLPAAGGQHLLGPPDGAKALEVAAPESQGLDSSLDGAARPKGSRRSVPRSSGQTVCRCPNCLEAERLGAPCGPDGGKKKHLHNCHIPGCGKAYAKTSHLKAHLRWHSGDRPFVCNWLFCGKRFTRSDELQRHLQTHTGTKKFPCAVCSRVFMRSDHLAKHMKTHEGAKEEAAGAASGEGKAGGAVEPPGGKGKREAEGSVAPSN
# B7: SPZ1 (protein, UniProt Q9BXG8 1-430, looked up)
# Spermatogenic leucine zipper …: MASSAKSAEMPTISKTVNPTPDPHQEYLDPRITIALFEIGSHSPSSWGSLPFLKNSSHQVTEQQTAQKFNNLLKEIKDILKNMAGFEEKITEAKELFEETNITEDVSAHKENIRGLDKINEMLSTNLPVSLAPEKEDNEKKQEMILETNITEDVSAHKENIRGLDKINEMLSTNLPVSLAPEKEDNEKKQQMIMENQNSENTAQVFARDLVNRLEEKKVLNETQQSQEKAKNRLNVQEETMKIRNNMEQLLQEAEHWSKQHTELSKLIKSYQKSQKDISETLGNNGVGFQTQPNNEVSAKHELEEQVKKLSHDTYSLQLMAALLENECQILQQRVEILKELHHQKQGTLQEKPIQINYKQDKKNQKPSEAKKVEMYKQNKQAMKGTFWKKDRSCRSLDVCLNKKACNTQFNIHVARKALRGKMRSASSLR
# B8: SOX10 (protein, UniProt P56693 1-466, looked up)
# Transcription factor SOX-10: MAEEQDLSEVELSPVGSEEPRCLSPGSAPSLGPDGGGGGSGLRASPGPGELGKVKKEQQDGEADDDKFPVCIREAVSQVLSGYDWTLVPMPVRVNGASKSKPHVKRPMNAFMVWAQAARRKLADQYPHLHNAELSKTLGKLWRLLNESDKRPFIEEAERLRMQHKKDHPDYKYQPRRRKNGKAAQGEAECPGGEAEQGGTAAIQAHYKSAHLDHRHPGEGSPMSDGNPEHPSGQSHGPPTPPTTPKTELQSGKADPKRDGRSMGEGGKPHIDFGNVDIGEISHEVMSNMETFDVAELDQYLPPNGHPGHVSSYSAAGYGLGSALAVASGHSAWISKPPGVALPTVSPPGVDAKAQVKTETAGPQGPPHYTDQPSTSQIAYTSLSLPHYGSAFPSISRPQFDYSDHQPSGPYYGHSGQASGLYSAFSYMGPSQRPLYTAISDPSPSGPQSHSPTHWEQPVYTTLSRP
# System: HEK293FT cells transfected with TF library
# Test: Screening of TF condensates based on fluorescent puncta
# Format: cell-based
# Conditions: Figure 1B numerical data; TF library screen, one value per transcriptional factor
# Outline: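 TF plasmids (final 1.6 μg/ml) reverse-transfected with PEI (4.8 μg/ml) into HEK293FT cells; after 60 h, cells cultured ±glucose for 12 h, fixed in 4% PFA and immunostained for Flag or GAL4 tags with Alexa 488 secondaries. Puncta scored by automated imaging of 50 random fields per well.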
molecule,measurement,value
B1,Z score of condensed fraction,-0.9758
B2,Z score of condensed fraction,-0.422
B3,Z score of condensed fraction,-0.2442
B4,Z score of condensed fraction,-1.033
B5,Z score of condensed fraction,-0.1184
B6,Z score of condensed fraction,2.974
B7,Z score of condensed fraction,0.06851
B8,Z score of condensed fraction,-0.1457
